The record followed here is US20240024520A1 (UCB, published 2024).

B1: K92chemFE F26A (peptide)
peptide: TCPEGWSECGVAIYGYECGRWGCGHALNSGPNISPYVST
B2: K92chemFE Y14A (peptide)
peptide: TCPEGWSECGVAIAGYECGRWGCGHFLNSGPNISPYVST
B3: K92chemFE W21A (peptide)
peptide: TCPEGWSECGVAIYGYECGRAGCGHFLNSGPNISPYVST
B4: K92chemFE W21H (peptide)
peptide: TCPEGWSECGVAIYGYECGRHGCGHFLNSGPNISPYVST
B5: K92chemFE Y16A (peptide)
peptide: TCPEGWSECGVAIYGAECGRWGCGHFLNSGPNISPYVST
B6: K92chemFE W6A (peptide)
peptide: TCPEGASECGVAIYGYECGRWGCGHFLNSGPNISPYVST

T1 sequence (P01031 19-673 limits assumed, chain 1 of 2): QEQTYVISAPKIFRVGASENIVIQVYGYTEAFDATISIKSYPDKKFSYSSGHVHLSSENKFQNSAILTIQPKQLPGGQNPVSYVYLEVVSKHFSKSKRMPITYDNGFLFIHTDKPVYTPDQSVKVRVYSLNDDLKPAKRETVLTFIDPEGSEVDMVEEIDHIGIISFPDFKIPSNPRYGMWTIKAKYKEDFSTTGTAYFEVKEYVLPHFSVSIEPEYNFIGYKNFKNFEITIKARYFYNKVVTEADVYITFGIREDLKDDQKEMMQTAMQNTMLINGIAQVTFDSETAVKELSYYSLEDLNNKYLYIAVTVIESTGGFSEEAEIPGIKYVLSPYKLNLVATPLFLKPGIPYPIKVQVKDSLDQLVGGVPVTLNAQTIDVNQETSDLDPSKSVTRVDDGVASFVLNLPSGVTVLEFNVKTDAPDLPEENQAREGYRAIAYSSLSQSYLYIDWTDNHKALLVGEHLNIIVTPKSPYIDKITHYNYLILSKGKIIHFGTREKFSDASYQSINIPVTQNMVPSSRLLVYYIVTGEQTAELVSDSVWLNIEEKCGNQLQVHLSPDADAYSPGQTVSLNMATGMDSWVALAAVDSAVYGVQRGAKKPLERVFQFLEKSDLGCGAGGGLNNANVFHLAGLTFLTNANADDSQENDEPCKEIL
T1 sequence (P01031 678-1676 limits assumed, chain 2 of 2): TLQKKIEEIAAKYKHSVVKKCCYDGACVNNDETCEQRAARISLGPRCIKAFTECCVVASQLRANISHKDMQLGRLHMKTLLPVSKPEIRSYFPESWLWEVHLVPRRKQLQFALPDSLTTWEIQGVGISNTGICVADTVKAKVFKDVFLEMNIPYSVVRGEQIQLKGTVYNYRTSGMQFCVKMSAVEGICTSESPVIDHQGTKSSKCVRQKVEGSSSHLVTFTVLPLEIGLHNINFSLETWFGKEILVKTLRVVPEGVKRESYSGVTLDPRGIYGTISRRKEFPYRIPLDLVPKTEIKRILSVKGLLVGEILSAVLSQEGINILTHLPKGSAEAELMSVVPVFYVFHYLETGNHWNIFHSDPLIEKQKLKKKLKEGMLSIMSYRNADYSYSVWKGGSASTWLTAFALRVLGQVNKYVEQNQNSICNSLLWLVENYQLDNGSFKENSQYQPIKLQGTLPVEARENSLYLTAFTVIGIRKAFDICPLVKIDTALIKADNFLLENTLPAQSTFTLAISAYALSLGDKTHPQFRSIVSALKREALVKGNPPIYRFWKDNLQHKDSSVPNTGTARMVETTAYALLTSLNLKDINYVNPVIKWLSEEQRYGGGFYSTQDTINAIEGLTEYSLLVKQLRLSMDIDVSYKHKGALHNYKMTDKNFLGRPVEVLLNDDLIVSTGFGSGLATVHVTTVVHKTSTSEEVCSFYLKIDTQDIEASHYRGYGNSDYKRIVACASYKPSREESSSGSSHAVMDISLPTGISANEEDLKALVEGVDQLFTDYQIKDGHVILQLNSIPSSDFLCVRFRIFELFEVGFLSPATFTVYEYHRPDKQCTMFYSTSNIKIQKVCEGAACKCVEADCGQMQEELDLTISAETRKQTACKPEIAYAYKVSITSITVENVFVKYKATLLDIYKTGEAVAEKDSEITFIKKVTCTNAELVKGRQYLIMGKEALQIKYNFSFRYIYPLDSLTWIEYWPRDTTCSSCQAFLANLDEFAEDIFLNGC

The assay addresses T1, human complement component C5 (human, UniProt P01031 19-673; P01031 678-1676).
T1 construct: mature; Mature C5 is a disulphide-linked beta and alpha chain cut from one precursor; Terbium-labelled in the FRET assays, biotinylated in part of the phage ELISA; also called human C5; C5-Tb
Briefly: SPR multi-cycle kinetics, human C5 immobilised, mean of n=3.
By Kd is commonly meant the equilibrium constant for the complex coming apart. By koff is commonly meant a measure of how fast the partners let go of each other. A higher koff goes with a short-lived complex. As usually defined, the kon is the rate constant with which the complex forms. Low values mean slower complex formation, high ones faster complex formation. As to B1, the affinity, expressed as Kd, was 18.8 nM; the koff worked out at 0.00328 s⁻¹; the kon is 184000 M⁻¹ s⁻¹.
The corresponding values for B2 are 3.62 nM, 0.0001 s⁻¹ and 27200 M⁻¹ s⁻¹.
B3 gave a Kd of 497 nM, a koff of 0.00848 s⁻¹ and a kon of 17400 M⁻¹ s⁻¹.
On the same counts, the results for B4 are 1.48 nM, 0.000612 s⁻¹ and 425000 M⁻¹ s⁻¹.
B5 showed a Kd of 221 nM and a koff of 0.786 s⁻¹.
For the molecule B6, the Kd stood at 219 nM, the koff stood at 0.00157 s⁻¹ and the kon worked out at 7980 M⁻¹ s⁻¹.
